Experimental data: patent US20180142030A1 (Bristol-Myers Squibb, published 2018)
Substitutions are numbered along the chain they refer to. Names and notes keep the numbering of the source.

T1: FcγRIIb (human, UniProt P31994 43-217, limits assumed)
T1 construct: Construct not described; also called hCD32b/FcγRIIb
T1 sequence (looked up): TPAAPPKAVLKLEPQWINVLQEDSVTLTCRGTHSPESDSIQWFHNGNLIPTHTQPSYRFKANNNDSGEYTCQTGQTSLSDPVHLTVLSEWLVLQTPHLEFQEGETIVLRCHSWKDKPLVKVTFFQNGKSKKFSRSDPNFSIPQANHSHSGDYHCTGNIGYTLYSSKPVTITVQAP

T2: FcγRIIa-R131 (human, UniProt P12318 34-218, limits assumed)
T2 construct: Construct not described
T2 sequence (looked up): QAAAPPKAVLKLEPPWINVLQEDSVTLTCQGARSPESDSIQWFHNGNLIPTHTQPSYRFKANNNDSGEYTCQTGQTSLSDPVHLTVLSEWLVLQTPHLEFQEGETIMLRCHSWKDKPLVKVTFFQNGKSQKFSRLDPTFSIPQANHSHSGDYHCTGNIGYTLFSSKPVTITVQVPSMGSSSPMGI

B1: 5F11-45 V4 D270E (antibody, human IgG1, kappa)
heavy: QVQLVQSGAEVKKPGSSVKVSCKASGYTFTDLSMHWVRQAPGQGLEWMGYITPSSGYTAYNQKFKGKTTLTADKSTSTAYMELSSLRSEDTAVYYCARLILQRGAYWGQGTLVTVSSASTKGPSVFPLAPSSKSTSGGTAALGCLVKDYFPEPVTVSWNSGALTSGVHTFPAVLQSSGLYSLSSVVTVPSSSLGTQTYICNVNHKPSNTKVDKRVEPKSCDKTHTCPPCPAPELLGGDSVFLFPPKPKDTLMISRTPEVTCVVVDVSHEEGEVKFNWYVDGVEVHNAKTKPREEQYNSTYRVVSVLTVLHQDWLNGKEYKCKVSNKALPAPIEKTISKAKGQPREPQVYTLPPSREEMTKNQVSLTCLVKGFYPSDIAVEWESNGQPENNYKTTPPVLDSDGSFFLYSKLTVDKSRWQQGNVFSCSVMHEALHNHYTQKSLSLSPG
light: DIVLTQSPDSLAVSLGERATINCRASKNVDSYGNSFMHWYQQKPGQPPKLLIYRASNLESGVPDRFSGSGSGTDFTLTISSLQAEDVAVYYCQQSNEDPLTFGQGTKLEIKRTVAAPSVFIFPPSDEQLKSGTASVVCLLNNFYPREAKVQWKVDNALQSGNSQESVTEQDSKDSTYSLSSTLTLSKADYEKHKVYACEVTHQGLSSPVTKSFNRGEC
notes: also called 5F11-45 D270E V4
B2: 5F11-45-V9-DT-sup (antibody, human IgG1, kappa)
heavy chain: B1 heavy with G237D, E270T, A330R
light chain: B1 light
notes: Tested as supernatant of antibody-producing cells; also called 5F11-45 V9 D270T
B3: 12D6-24 V4 D270E (antibody, human IgG1, kappa)
heavy: QVQLVQSGAEVKKPGASVKVSCKASGYTFTGYNMNWVRQAPGQGLEWMGNIDPYYGNTNYNQKFKGRVTMTTDTSTSTAYMELRSLRSDDTAVYYCARLGLQLYALDYWGQGTTVTVSSASTKGPSVFPLAPSSKSTSGGTAALGCLVKDYFPEPVTVSWNSGALTSGVHTFPAVLQSSGLYSLSSVVTVPSSSLGTQTYICNVNHKPSNTKVDKRVEPKSCDKTHTCPPCPAPELLGGDSVFLFPPKPKDTLMISRTPEVTCVVVDVSHEEGEVKFNWYVDGVEVHNAKTKPREEQYNSTYRVVSVLTVLHQDWLNGKEYKCKVSNKALPAPIEKTISKAKGQPREPQVYTLPPSREEMTKNQVSLTCLVKGFYPSDIAVEWESNGQPENNYKTTPPVLDSDGSFFLYSKLTVDKSRWQQGNVFSCSVMHEALHNHYTQKSLSLSPG
light: DIVMTQTPLSLPVTPGEPASISCRSSQSLVHSNANTYLHWYLQKPGQSPQLLIYKLTNRFFGVPDRFSGSGSGTDFTLKISRVEAEDVGVYYCSQSIHVPWTFGGGTKVEIKRTVAAPSVFIFPPSDEQLKSGTASVVCLLNNFYPREAKVQWKVDNALQSGNSQESVTEQDSKDSTYSLSSTLTLSKADYEKHKVYACEVTHQGLSSPVTKSFNRGEC
B4: 12D6-24-V9-DT-sup (antibody)
heavy: B3 heavy with G239D, E272T, A332R
light: B3 light
notes: Tested as supernatant of antibody-producing cells; also called 12D6-24 V9 D270T; copies: 2 + 2

Each binder was assayed against T1, FcγRIIb (assay: BLI (ForteBio Octet), %Rmax at 1 µM hCD32b/FcγRIIb).
Procedure: (§1) See Example 8. Antibody names including “-sup” represent supernatants from antibody producing cells, whereas others are purified antibodies. Data are presented as percentages of a maximum receptor binding value for each combination of antibody and receptor, as measured in a ForteBio Octet system. See, e.g., Example 3. Each cluster of three bars represents, from left to right, binding to hCD32a/FcγRIIa-H131 (10 μM) (hatched bars), […] (10 μM) (black bars), and hCD32b/FcγRIIb (1 μM) (white bars).
(§2) Supernatants were obtained from cells expressing these antibodies and assayed for binding to hCD32/FcγRII. Selected purified antibodies without mutations at position 270 were used as controls.

Binding result, binds:
B1
B2
B3
B4

These binders were tested against T2, FcγRIIa-R131 (assay: BLI (ForteBio Octet), %Rmax at 10 µM FcγRIIa-R131 (CD32a-R131 on the sheet)).
Procedure: as §1, §2

Binding result, binds:
B1
B2
B3
B4
